Experimental data from paper doi:10.1101/2022.07.14.499993 (bioRxiv, 2022).

Experiments:
[1] = target: IL-6/IL-6Rα fusion (interleukin and receptor connected with a (GGGGS)3 linker) (UniProt P08887 114-320; P05231 30-212); assay: ITC
[2] = target: T1, IL-11/IL-11Rα fusion (interleukin and receptor connected with a (GGGGS)3 linker) (UniProt Q14626 113-318; P20809 23-199); assay: ITC
T1 chain: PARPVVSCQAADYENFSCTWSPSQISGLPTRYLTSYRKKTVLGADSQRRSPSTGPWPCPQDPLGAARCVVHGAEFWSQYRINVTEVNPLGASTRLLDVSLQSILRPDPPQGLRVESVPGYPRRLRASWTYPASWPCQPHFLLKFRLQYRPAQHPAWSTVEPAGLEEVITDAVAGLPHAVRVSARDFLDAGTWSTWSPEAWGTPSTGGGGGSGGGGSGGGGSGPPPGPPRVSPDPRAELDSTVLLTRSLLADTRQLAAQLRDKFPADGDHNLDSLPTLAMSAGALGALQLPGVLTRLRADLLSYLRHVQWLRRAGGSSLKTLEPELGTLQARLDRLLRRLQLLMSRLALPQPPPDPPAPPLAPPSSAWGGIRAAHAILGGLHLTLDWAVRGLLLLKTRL

[3] = target: T2, IL-11 receptor α (amino acids 113-318), the receptor part of the IL-11/IL-11Rα fusion (UniProt Q14626 113-318); assay: HDX-MS
T2 sequence (looked up): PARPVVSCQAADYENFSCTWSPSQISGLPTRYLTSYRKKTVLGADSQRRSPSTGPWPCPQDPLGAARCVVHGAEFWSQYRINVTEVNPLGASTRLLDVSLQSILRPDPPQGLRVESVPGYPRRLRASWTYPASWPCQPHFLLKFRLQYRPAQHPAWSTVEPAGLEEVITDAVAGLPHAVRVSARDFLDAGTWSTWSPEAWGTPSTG

[4] = target: T3, IL-11 receptor α, fusion protein with the Fc domain of human IgG1 (UniProt Q14626 24-370); assay: SPR
T3 sequence (looked up): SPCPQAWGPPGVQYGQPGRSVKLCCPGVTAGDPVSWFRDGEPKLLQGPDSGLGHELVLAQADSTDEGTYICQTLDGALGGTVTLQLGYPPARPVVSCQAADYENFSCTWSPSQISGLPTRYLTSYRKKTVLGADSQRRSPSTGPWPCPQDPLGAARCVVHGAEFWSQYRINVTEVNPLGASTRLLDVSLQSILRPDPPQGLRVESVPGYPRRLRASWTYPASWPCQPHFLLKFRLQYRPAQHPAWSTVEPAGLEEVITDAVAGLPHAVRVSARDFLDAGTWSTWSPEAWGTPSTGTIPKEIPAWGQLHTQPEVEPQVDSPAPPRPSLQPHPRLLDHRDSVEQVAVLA

B1: human glycoprotein 130 (amino acids 24-618) (receptor, UniProt P40189 24-618, looked up)
chain: LLDPCGYISPESPVVQLHSNFTAVCVLKEKCMDYFHVNANYIVWKTNHFTIPKEQYTIINRTASSVTFTDIASLNIQLTCNILTFGQLEQNVYGITIISGLPPEKPKNLSCIVNEGKKMRCEWDGGRETHLETNFTLKSEWATHKFADCKAKRDTPTSCTVDYSTVYFVNIEVWVEAENALGKVTSDHINFDPVYKVKPNPPHNLSVINSEELSSILKLTWTNPSIKSVIILKYNIQYRTKDASTWSQIPPEDTASTRSSFTVQDLKPFTEYVFRIRCMKEDGKGYWSDWSEEASGITYEDRPSKAPSFWYKIDPSHTQGYRTVQLVWKTLPPFEANGKILDYEVTLTRWKSHLQNYTVNATKLTVNLTNDRYLATLTVRNLVGKSDAAVLTIPACDFQATHPVMDLKAFPKDNMLWVEWTTPRESVKKYILEWCVLSDKAPCITDWQQEDGTVHRTYLRGNLAESKCYLITVTPVYADGPGSPESIKAYLKQAPPSKGPTVRTKKVGKNEAVLEWDQLPVDVQNGFIRNYTIFYRTIIGNETAVNVDSSHTEYTLSSLTSDTLYMVRMAAYTDEGGKDGPEFTFTTPKFAQGEI
B1 was tested, and the dH [1] was -6.69 ± 0.239 kcal/mol and the dH [2] was -12.2 ± 0.239 kcal/mol.

B2: Interleukin-11 (amino acids 23-199), the interleukin part of the IL-11/IL-11Rα fusion (domain or fragment, UniProt P20809 23-199, looked up)
chain: GPPPGPPRVSPDPRAELDSTVLLTRSLLADTRQLAAQLRDKFPADGDHNLDSLPTLAMSAGALGALQLPGVLTRLRADLLSYLRHVQWLRRAGGSSLKTLEPELGTLQARLDRLLRRLQLLMSRLALPQPPPDPPAPPLAPPSSAWGGIRAAHAILGGLHLTLDWAVRGLLLLKTRL
B2: binds [3].

B3: Interleukin-11 (ligand, UniProt P20809 22-199, looked up)
chain: PGPPPGPPRVSPDPRAELDSTVLLTRSLLADTRQLAAQLRDKFPADGDHNLDSLPTLAMSAGALGALQLPGVLTRLRADLLSYLRHVQWLRRAGGSSLKTLEPELGTLQARLDRLLRRLQLLMSRLALPQPPPDPPAPPLAPPSSAWGGIRAAHAILGGLHLTLDWAVRGLLLLKTRL
In the case of B3, the dH [4] is reported as 11.2 ± 0.717 kcal/mol.
